Results reported in US20070003517A1 (UNIVERSITY OF MASSACHUSETTS, published 2007).

How the values were obtained:
[1] = tested on: T1, JIP-1 (as added to the in vitro protein kinase assay)
T1 sequence: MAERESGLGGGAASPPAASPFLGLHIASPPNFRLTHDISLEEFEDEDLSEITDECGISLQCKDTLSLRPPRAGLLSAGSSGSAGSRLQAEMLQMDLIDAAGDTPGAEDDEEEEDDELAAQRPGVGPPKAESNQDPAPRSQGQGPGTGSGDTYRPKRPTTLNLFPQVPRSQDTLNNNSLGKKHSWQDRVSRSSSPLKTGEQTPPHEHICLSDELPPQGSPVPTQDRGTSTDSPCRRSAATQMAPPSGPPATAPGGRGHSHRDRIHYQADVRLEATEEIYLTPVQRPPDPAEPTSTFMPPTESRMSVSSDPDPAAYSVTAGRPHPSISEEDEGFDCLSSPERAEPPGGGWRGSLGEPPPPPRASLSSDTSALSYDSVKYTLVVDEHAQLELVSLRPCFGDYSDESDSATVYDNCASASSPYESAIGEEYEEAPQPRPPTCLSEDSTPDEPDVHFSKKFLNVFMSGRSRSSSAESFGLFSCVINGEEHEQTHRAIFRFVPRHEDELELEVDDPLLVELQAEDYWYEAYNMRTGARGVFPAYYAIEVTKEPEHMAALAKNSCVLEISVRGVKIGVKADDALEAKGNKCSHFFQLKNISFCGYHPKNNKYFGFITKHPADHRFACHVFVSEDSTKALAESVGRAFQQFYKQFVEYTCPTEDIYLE

[2] = biological target: T2, Flag epitope-tagged JNK1 (cell lysate) (human, UniProt P45983-2 1-384, limits assumed); test: GST pull-down from cell lysate, anti-Flag (M2) immunoblot
T2 construct: written N-terminal here
T2 sequence (P45983 other isoform, or with tags, fused parts or gaps limits assumed): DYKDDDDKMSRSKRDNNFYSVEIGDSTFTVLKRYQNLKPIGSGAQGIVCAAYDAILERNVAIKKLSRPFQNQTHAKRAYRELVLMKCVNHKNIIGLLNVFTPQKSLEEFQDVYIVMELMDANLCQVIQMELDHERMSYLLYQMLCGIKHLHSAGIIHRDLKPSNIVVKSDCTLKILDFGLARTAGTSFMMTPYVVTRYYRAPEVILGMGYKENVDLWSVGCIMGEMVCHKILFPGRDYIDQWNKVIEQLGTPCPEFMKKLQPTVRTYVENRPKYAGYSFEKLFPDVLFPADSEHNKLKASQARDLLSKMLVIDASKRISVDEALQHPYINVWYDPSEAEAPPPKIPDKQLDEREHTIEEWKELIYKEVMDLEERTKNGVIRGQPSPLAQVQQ
Method: To test whether JIP-1 binding to JNK is also isoform-dependent, a binding assay was utilized. Cell lysates (1 ml in TLB) containing JNK1, JNK2, or p38 MAP kinase, each tagged with the Flag epitope, were incubated with 5 μg GST-fusion proteins pre-bound to 10 μl glutathione-Sepharose. […] The GST-ATF2 fusion protein contains residues 1-109 of ATF2, and the GST-Jun fusion protein contains residues 1-79 of c-Jun. After incubation for one hour at 4° C. and three washes with TLB, bound proteins were detected by protein immunoblot analysis with the M2 monoclonal antibody, which is specific for the Flag epitope. Dérijard, et al., supra; Sluss et al., supra; Gupta et al., supra. When ATF2 or c-jun GST fusion proteins were used in this assay, binding to JNK1 was greater than binding to JNK2. This finding is consistent with the results of previous studies. […] The level of binding of these fusion proteins to JNK1 was similar to the level of binding to JNK2.

Molecule: ERK2 (immune complex from CHO cells)
- phosphorylation of substrate (myelin basic protein) by ERK, immune complex kinase assay [1]: JIP-1 caused no significant change in the phosphorylation of substrates by the related MAP kinases p38 and ERK2

Molecule: p38 (immune complex from CHO cells)
- phosphorylation of substrate (GST-ATF2) by p38, immune complex kinase assay [1]: JIP-1 caused no significant change in the phosphorylation of substrates by the related MAP kinases p38 and ERK2

Molecule: JNK (immune complex from CHO cells)
- phosphorylation of c-Jun (GST-Jun) by JNK, immune complex kinase assay [1]: JIP-1 markedly inhibited the phosphorylation of c-Jun by JNK

B1: GST-JIP-1 fusion protein containing residues 203-281 of JIP-1 (other)
chain: PHEHICLSDELPPQGSPVPTQDRGTSTDSPCRRSAATQMAPPSGPPATAPGGRGHSHRDRIHYQADVRLEATEEIYLTP
notes: not shown: glutathione-S-transferase (GST) of vector pGEX-3X
- binding result [2]: no binding

B2: GST-JIP-1 fusion protein containing residues 164-240 of JIP-1 (other)
chain: PQVPRSQDTLNNNSLGKKHSWQDRVSRSSSPLKTGEQTPPHEHICLSDELPPQGSPVPTQDRGTSTDSPCRRSAATQ
notes: as for B1
- binding result [2]: no binding
